B2: LcrV with a deletion of the N-terminal domain (domain or fragment)
chain: SKLREELAELTAELKIYSVIQAEINKHLSSGGTINIHDKSINLMDKNLYGYTDEEIFKASAEYKILEKMPQTTIQEGETEKKIVSIKNFLESEKKRTGALGNLKDSYSYNKDNNELSHFATTCSDKSRPLNDLVSQKTTQLSDITSRFNSAIEALNRFIQKYDSVMQRLLDDTSGK

Data set [1] has as its target LcrV with a deletion of the N-terminal 23 residues (Yersinia pseudotuberculosis, UniProt P23994 24-326). The data set is described as follows: ITC; […] ([…]) […] ([…]) […]; 25°C; 30 mM phosphate buffer, 50 mM NaCl, 1 mM TCEP, pH 7.0. The settings on record: both partners purified.
Data set [2] deals with B2. The data set is described as above. The settings on record: both partners purified.
The target in a further data set is LcrV, full length (Yersinia pseudotuberculosis, UniProt P23994 1-326). The data set is described as follows: ITC. As to conditions: both partners purified.
Data set [3] deals with the molecule itself. As to the kind of experiment: […]; 50 mM NaCl, 30 mM phosphate buffer, 1 mM TCEP.

B1: LcrG, full length (natural protein)
chain: MKSSHFDEYDKTLKQAELAIADSDHRAKLLQEMCADIGLTPEAVMKIFAGRSAEEIKPAERELLDEIKRQRERQPQHPYDGKRPRKPTMMRGQII
What is called Kd is the concentration at which binding is half-saturated. B1: the Kd in data set [1] is 54 ± 8.8 nM; in data set [2] it was no more than 10 nM; in the data set with LcrV, full length, 127 ± 63 nM.
As usually defined, the stoichiometry N is a count of units in the complex or per binding partner. B2: the “stoichiometry N” value in data set [3] stood at 3.

(Values after publication PMC12720783 (Protein Science : A Publication of the Protein Society, 2025).)
